1 protein from patent US20070142277 can be followed below.

This series deals with T1, fluorogenic APP-based peptide MCA-SEVNLDAEFK(DNP)-CONH2.
T1 chain: SEVNLDAEFK

B1: BACE455 (protein)
chain: ETDEEPEEPGRRGSFVEMVDNLRGKSGQGYYVEMTVGSPPQTLNILVDTGSSNFAVGAAPHPFLHRYYQRQLSSTYRDLRKGVYVPYTQGKWEGELGTDLVSIPHGPNVTVRANIAAITESDKFFINGSNWEGILGLAYAEIARIIGGIDHSLYTGSLWYTPIRREWYYEVIIVRVEINGQDLKMDCKEYNYDKSIVDSGTTNLRLPKKVFEAAVKSIKAASSTEKFPDGFWLGEQLVCWQAGTTPWNIFPVISLYLMGEVTNQSFRITILPQQYLRPVEDVATSQDDCYKFAISQSSTGTVMGAVIMEGFYVVFDRARKRIGFAVSACHVHDEFRTAAVEGPFVTLDMEDCGYNIPQTDESTLMTIAYVMAAICALFMLPLCLMVCQWRCLRCLRQQHDDFADDISLLK
Protein B1 yielded a BACE activity over time: mean fluorescence signal of Substrate V cleavage by HEK293 membrane extract, 15 min (mean fluorescence signal) of 125; a BACE activity over time: mean fluorescence signal of Substrate V cleavage by HEK293 membrane extract, 60 min (mean fluorescence signal) of 195; a BACE activity over time: mean fluorescence signal of Substrate V cleavage by HEK293 membrane extract, 120 min (mean fluorescence signal) of 228; a BACE activity over time: mean fluorescence signal of Substrate V cleavage by HEK293 membrane extract, 240 min (mean fluorescence signal) of 239.
